The nanobody polyreactivity screen of Harvey et al. (2022)

Experiment: yeast display, Sf9 membrane polyspecificity reagent, FACS + sequencing; frameworks hold sequencing errors
Outline: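 Sorting gates, low and high (top ~1%), were placed on anti-HA fluorescence to track expression and on streptavidin fluorescence to track reagent binding. A clone's polyreactivity label is taken from the gate it came out of. The reagent was 10% biotinylated, detergent-solubilized Sf9 membrane, applied for 1 hour at 4 °C to galactose-induced yeast display cells.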

| Sequence | polyreactivity (PSR sort gate) |
| --- | --- |
| QVQLVESGGGLVQAGGSLRLSCADSGFTFDYNAMGSYRQAPGKERELVAAISTGGSTKYADSVKGRFTISRDNAKNTVYLQMNSLKPEDTAVYYCNKQTTDRGFYDWKWSGFDYWGQGTQVTVSS | low polyreactivity |
| QVQLVESGGGLVQAGGSLRLSCADSGFTFGRYAMRWYRQATGKERELVAAISRGGSYTYYADSVKGRLTISRDNAQNTVFLQMNSLKPEDTAVYYCNIVIIWARFDYWRQGTQVTVSS | high polyreactivity |
| QVQLVESGGGLVQAGGSLRLSCADSGFTFRTYAMGWYRQAPGKEREFVAAITTYGGSTYYADSVKGRFTISRDNAKYTVYLQMNTLKPEDTAVYYCATRGRLRNYDYWGQGTQVTVSS | high polyreactivity |
| QVQLVESGGGLVQAGGSLRLSCADSGFTFTYYTMGWYRQAPGKERELVAAISGSGGSTYYADSVKGRFTISRDNAKYTVYLQMNSQKPEDSAVYYCAARSRWQSYRLKNHGTYKHDYWGQGTQVTVSS | high polyreactivity |
| QVQLVESGGGLVQAGGSLRLSCADSGFTFYRNAMGWYRQAPGKERELVAAITSTGSTNYADSVKGRFTISRDNAKNTVYLQMNSLKPEDTAVYYCIKRRFGRQGMDYWGQGTQVTVSS | low polyreactivity |
| QVQLVESGGGLVQAGGSLRLSCADSGGTFGNTAMGLYRQAHGKEMELVAAINRSDGGTYYADSEKCRFTISRDNAKNTVYLQMNSLKPEDTAVYYCNADDFYYDEPYDFWGQGTQVTVSS | low polyreactivity |
| QVQLVESGGGLVQAGGSLRLSCADSGGTFYRYARGWYRQAPGKERELVAAISRRGGSTYYADSVKGRFTISRDNAKNTVYLQMNSLKPDDTAVYYCDKDVSDSRFDYWGQGTQVTVSS | high polyreactivity |
| QVQLVESGGGLVQAGGSLRLSCADSGITFVRNAMGWYIHAPGKERECVAAISGSGVSTYADSVKGRFTISRDNAKNTVYLQMNILKPEDTAVYYCNTDEWYHFYHGAHKYDYWGQATQVTVSS | low polyreactivity |
| QVQLVESGGGLVQAGGSLRLSCADSGLILYTYAMGWYRQAPGKERELVAAIDWGDGDTYYADSVKGRFTISRDNAKNTVYLQMNSLKPEDTAVYYCAADLVGYSGYYFDEEYYWGQGTQVTVSS | high polyreactivity |
| QVQLVESGGGLVQAGGSLRLSCADSGNTFKGYAMGWYRQAPGKERELVAAISWSGSSTYYADSVKGRFTISRDNAKNTVYLQMNSLKPEDTAVYYCAVTYRRFYYWGQGTQVTVSS | high polyreactivity |
| QVQLVESGGGLVQAGGSLRLSCADSGRIFDVNDKRSYRQAPGKERELVAAITYSGTDTYYADSVKGRFTISRDNAKNTVYLQMNSLKPEDTAVYYCAAEFTGWEYIGRDYWGQGTQVTVSS | low polyreactivity |
| QVQLVESGGGLVQAGGSLRLSCADSGRIFGRYAMGWYRQAPGQERELVAGISARGGSTYYADSVKGRFTISRDNAKNTVYLQMNRLKPEDTAVYYCAAAGYRGGGYWGQGTQVTVSS | high polyreactivity |
| QVQLVESGGGLVQAGGSLRLSCADSGRIFHTYAMGWYRHAPGKERELVAAISKGGSGTYYADSVKGRFTISRDNAKNTVYLQRNSLKPEDTAVYYCAADLTYHYPRYITYEYWGQRTQVTVSS | low polyreactivity |
| QVQLVESGGGLVQAGGSLRLSCADSGRIIDTYAMVWYRQAPGKERELVASISRSDTSTSNADSVKGRFTISRDNAKNTVYLQMNSLKPEDTAVYYCNKDGVPVNNTKRYDYWGQGTQVTVSS | low polyreactivity |
| QVQLVESGGGLVQAGGSLRLSCADSGRLFYPYAMGWYTQAPGTERELVAAIRRSGVDTYYADSVKGRFTISRDNAKNTVYLQMNSLKPEDTAVYYCAADPYSFFPHYDSWGQGTQVTVSS | low polyreactivity |
| QVQLVESGGGLVQAGGSLRLSCADSGRTFQYYAMGWSRQSPAKERELVAAITSGGSTYYADSVKGRFTISRDNAKNTVYLQMNSLKTEDTAVYYCAADFLYYSSGGKMDYWGQGTQVTVSS | low polyreactivity |
| QVQLVESGGGLVQAGGSLRLSCADSGRTFRIYAMGLYIQAPGKERELVAAITRRGGSTYYADSVKGRFTISRDNAKNTVYLQMNSLKPEDTAVYYCAADLRYGYLYPYDSWGQGTQVTVSS | high polyreactivity |
| QVQLVESGGGLVQAGGSLRLSCADSGRTFSYNTMGWYRQATGKERELVARITWGGGSTYYADSVKGRFTISRDNAKNTVYLQMNSLKPEDTAVYYCNADLRELSPWYWYSGEMDYWGQGTQVTVSS | low polyreactivity |
| QVQLVESGGGLVQAGGSLRLSCADSGRTFTRYAMGWYRQAPGKERELVAAISYIGGGTYYADSVKGRFTISRDNAKNTVYLQMNSLKPEDTAVYYCAGYSRQAEYEYWGQGTQVTVSS | high polyreactivity |
| QVQLVESGGGLVQAGGSLRLSCADSGRTFVGNAMGWSRQAPGKERELVAAITSRTGSTYYADSVKGRFTISRDNAKNTVYLQMTSLTPEDTAVYYCATPYYQNVYSRKAYTYWGQGTQVTVSS | high polyreactivity |
| QVQLVESGGGLVQAGGSLRLSCADSGRTSRVYAMGWYRQEPAKERELVAAITWRGGNTYYADSVKGRFTISRDNAKNTVYLQMNSLKPEDTAVYYCAADPLSYGSWHGDSWGQGTQVTLSS | high polyreactivity |
| QVQLVESGGGLVQAGGSLRLSCADSGSIFAYYARGWYRQAPGKERELVAAISQSGGSTYYAYSVKGRFTISRDTAKNTVYLQMNSLKPEDTAVYYCAARFRYGYTGYRYDYWGQGTQVTVSS | high polyreactivity |

| Sequence | polyreactivity (PSR sort gate) |
| --- | --- |
| QVQLVESGGGLVQAGGSLRLSCADSGSIFSYYAMGWYRQEPGKARELVASISRTGVSTHYADSVKGRFTISRDNAKNTVYLQMNSLKPEDNAVYYCNAKYLTWSYRYYYWGQGTQVTVSS | high polyreactivity |
| QVQLVESGGGLVQAGGSLRLSCADSGSIFVWNDMGWYRQAPGKEREFVAAITSRDGSTYYADSVKGRFTISRDTAKNTVYLQMTSLKPEDTAVYYCAARLRVTGFYSRTRYYWGQGTQVTVAS | low polyreactivity |
| QVQLVESGGGLVQAGGSLRLSCADSGSTFDYPMGWYRQAPGKERELVASITFSTGSTYYADSVKGRFTISRDNAKNTVYLQMNSLKPEDTAVYYCATGVDTYSLTVEHDSWVQGTQVTVSS | low polyreactivity |
| QVQLVESGGGLVQAGGSLRLSCADSGSTFNSYAMGWYRQAPGKERELVAAITHRGSTYYADSVKGRFTISLDNAKNTVYLQMNSLKPEDTAVDYCNVRRIGNGRRVDYWGQGTQVTVSS | high polyreactivity |
| QVQLVESGGGLVQAGGSLRLSCADSGSTFRRYAMGWYRQAPGKERELVAAISWSGGSTYYADSVKGRFTISRDNAKNTVYLQMKSLKPEDTAVYYCAARGVTSYWQDYDYWGQGTQVTVSS | low polyreactivity |
| QVQLVESGGGLVQAGGSLRLSCADSGSTFRRYTMGWYRQAPGKERELVASITRSGGSKYYADSVKGRFTISRDNAKNTVYLQMNSLKPEDTAVYFCNKLSGYGWRSYGYWGQGTQVTVSS | high polyreactivity |
| QVQLVESGGGLVQAGGSLRLSCADSGSTSYDYAMGWYRQAPGKERELVAAISGSSSTTYYADSVKGRFTISRDNAKNTVYLQMNSLKPEDTAVYYCNAVTTTGSGYGYWGQGTQVTVSS | low polyreactivity |
| QVQLVESGGGLVQAGGSLRLSCADSGSTSYRYAMGRYRQSPGKERELVAVITSGSSTYYADSVKGRFTISRDNAKNTDYLQINSLKPEDTAVYYCAVGRTYRRYSAASYNYWGQGTQVTVSS | high polyreactivity |
| QVQLVESGGGLVQAGGSLRLSCAGSGFTFGYYAMGWSRPAPGKERELVAAMSWNGGRTYYADSVKGRFTISRDNAKNTVYLQLNSLKPEDTAVYSCAADYRFYSPTKYSYDDWGQGTQVTVSS | high polyreactivity |
| QVQLVESGGGLVQAGGSLRLSCAGSGFTFIIYAMGWYREAPGKERELVAAITRSGGSTYYADSVKGRFTISRDNAKNTVYLQMNSLKPEDTAVYYCAAALSVRFYFWGQGTQVTVSS | high polyreactivity |
| QVQLVESGGGLVQAGGSLRLSCAGSGFTFSSYTIGWYRQAPGKEREFVASISSGGSTNYADSVKGRFTISRDNAKNTVYLQMNSLKPEDTAVYYCAAGTTGITFFDVGSGYDYWGQGTQVTVSS | low polyreactivity |
| QVQLVESGGGLVQAGGSLRLSCAGSGFTLGSNAMGWYRQAPGKERELVAVISGSGGSTYYADSVKGRFTISRDNAKNTVYLQMNSLKPEDTAVYYCAAQYSAGQYYGYGYWGQGTQVTVSS | high polyreactivity |
| QVQLVESGGGLVQAGGSLRLSCAGSGHIFRQYAMGWYRQAPGKERELVAAITSGGSTYYADSVKGRFTISRDNAKNTVYLQMNSLKPEDTAVYYCATRPGGDRPIGYDYWGQGTQVTVSS | low polyreactivity |
| QVQLVESGGGLVQAGGSLRLSCAGSGRIFDLYTMGWYRQAPGKERELVAAIRWSDGSTYYADSVKGRFTISRDNAKNTVYLQINSLKPEDTAVYYCAADTRTSYYNDDYDYWGQGTQVTVSS | low polyreactivity |
| QVQLVESGGGLVQAGGSLRLSCAGSGRILVQNDMGWYRQAPGNESELVAAIRSDGSTSYADSVKGRFTISRDNAKYTVYLQMNSLKPEDTAVYYCAARIDWTGGYYDYWGQGTQVTVSS | low polyreactivity |
| QVQLVESGGGLVQAGGSLRLSCAGSGRTFVYYAMGWYRQAPGREREFVAAISRSGGRTSYADSVKGRFTISRDNAKNTVYLHMNSLKPEDTAVNYCAAEKRTQPTSREYYWGQGTQVTVSS | high polyreactivity |
| QVQLVESGGGLVQAGGSLRLSCAGSGRTVANNAMGWYRQAPGKERELVAAISNGDSPYADSVKGRFTISRDNAKNTVYLQLNSLKPEDTAVYYCATRTQEDYTGDYWGQGTQVTVSS | low polyreactivity |
| QVQLVESGGGLVQAGGSLRLSCAGSGSIFGEYVMGCYRQATVKERELVADISWRDGDTYYADSVKGRFTISRDNAKNTVYLQMNSLKPEDTAVYYFAADVIVPESYGYWPLSYYYLGQGTQVTVSS | low polyreactivity |
| QVQLVESGGGLVQAGGSLRLSCAGSGSIFSIYAMGWYRQAPGKERELVAAIRYDGGSTYYADSVKGRFTISRDNAKNTVYLQMNSLKPEDTAVYYCAAKVYFRRRGLHPYDYWGQGTQVNVSS | low polyreactivity |
| QVQLVESGGGLVQAGGSLRLSCAGSGSSFSNYAMRGYRQATGKERELVAVITTGASTYYADSLKGRFTISRDNAKNTVYLQLNSLKPEDSAVYACAKGKISRETPGIYWSYSYGYWGQGTQVTVSS | high polyreactivity |
| QVQLVESGGGLVQAGGSLRLSCAGSGSTFGRYAMGWYRQAPGKERELVAAITSDTGNTNYADSVKGRFTISRDNAKNTVYLQMNSLKPEDTAVYYCAAATFWVLWGHVIGNYDSWGQGTQVTVSS | low polyreactivity |
